One substance from patent publication US7452992B2, “Heterocyclic compounds as CCR5 antagonists” (SmithKline Beecham Corporation, priority 2002, dated 2008) can be followed below.

The target of this experiment is T1, human CCR5 chemokine receptor (Homo sapiens, UniProt P51681).
T1 construct: host or cells: Chinese Hamster Ovary (CHO) cells; membranes prepared from the cell pellet
The experiment is described as follows: CC-Chemokine Receptor-5 Binding by Scintillation Proximity Assay (CCR5 SPA), displacement of 125I-MIP1α. Particulars: standard compound, 14-point concentration-response curve in triplicate, starting concentration 1 μM. The protocol: CC-Chemokine Receptor-5 Binding by Scintillation Proximity Assay (CCR5 SPA)
Scintillation Proximity Assay for the Human CC-Chemokine Receptor, CCR-5
This protocol describes a high-throughput screen using SPA binding to identify compounds that inhibit binding of ^125I-MIP1α to the human CCR5 chemokine receptor.
Human CCR5 receptors were expressed in Chinese Hamster Ovary (CHO) cells, registration # 12025. Cells were grown in suspension and a 50 to 80 ml CCR5 cell pellet was prepared. […]
The saturation curve binding experiment is performed by adding varying amounts of [^125I]MIP1α (0-8.5 nM to membranes and beads in concentrations chosen from the optimal protein/bead ratio. The data is analyzed using a non-linear curve-fitting program. The Kd and Bmax are derived from the curve. […]
A general note: In a scintillation proximity assay essentially only radioactivity close to the scintillant gives light.

T1 sequence (P51681 whole entry): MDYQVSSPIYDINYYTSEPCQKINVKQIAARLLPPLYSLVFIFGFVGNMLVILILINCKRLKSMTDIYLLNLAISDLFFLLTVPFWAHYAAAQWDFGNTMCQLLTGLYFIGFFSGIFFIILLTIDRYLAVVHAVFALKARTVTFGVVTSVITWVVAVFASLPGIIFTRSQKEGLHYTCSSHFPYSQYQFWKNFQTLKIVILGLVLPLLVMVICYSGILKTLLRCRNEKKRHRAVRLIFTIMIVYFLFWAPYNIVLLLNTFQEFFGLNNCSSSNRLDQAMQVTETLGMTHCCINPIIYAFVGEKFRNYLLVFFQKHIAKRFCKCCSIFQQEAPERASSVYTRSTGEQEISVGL

For “MIP1α: natural chemokine ligand of CCR5, used as standard compound in the SPA binding assay”, the “average historical pKi” value is recorded as 7.6.
